This note sets out measurements from the RNAGym collection of RNA variant scans (doi:10.7554/elife.80360).

B1: Hammerhead Ribozyme (parent)
chain: ACCGGAUGUGCUUUCCGGUCUGAUGAGUCCGUGAGGACGAAACAG

The variants in this data set derive from B1. Briefly: self-cleavage, relative activity (ratio to wild type); higher = more cleavage; co-transcriptional.
As for ACCGGAUGUGCGUUCCGGUCUGAUGAGUCCGCGAGGACGAAACAG [U12G U32C], the self-cleavage is 0.921.
ACCGGAUGUCCUUUCCGGUCUGAUGAGUCCGUGAGGACGACACAG [G10C A41C]: the self-cleavage is 0.299.
As to ACCGGAUGUGCUUUCCGGUCUGAUGAGUUCGUGUGGACGAAACAG [C29U A34U], the self-cleavage was found to be 0.603.
ACCGGAGGUGCUUUCCGGUCUGAUGGGUCCGUGAGGACGAAACAG [U7G A26G]: the self-cleavage was 0.289.
Consider ACCGGAUGUGCUUUCCGGUCCGAUGAGUCCGUGAGGACCAAACAG [U21C G39C], for which the self-cleavage was determined as 0.378.
As for ACCGGAUGUGCCUUCCGGUCUGAUGAGUCCGUGAGGACGAAACCG [U12C A44C], the self-cleavage came out at 0.611.
With ACCCGAUGUGCUUUCCGGUCUGAUGAGUCCGUGAGGACGGAACAG [G4C A40G], the self-cleavage turned out to be 0.243.
For the variant ACGGGAUGUGUUUUCCGGUCUGAUGAGUCCGUGAGGACGAAACAG [C3G C11U], the self-cleavage is 0.314.
As for ACCGGAUGAGCUUUCCGGUCUGAUGAGUCCGUGAGGACAAAACAG [U9A G39A], the self-cleavage is 0.307.
Regarding ACCGGAUGUGCUUUCCGGUCUGAUGAUUCCGGGAGGACGAAACAG [G27U U32G], the self-cleavage was found to be 0.417.
Turning to ACCGGAUGUGCUUUCCGGUCUGAUGAGUCUGUGAGGACGCAACAG [C30U A40C], the self-cleavage turned out to be 0.514.
ACCCGAUGUGCUUUCCGGUCUGAUGAGUACGUGAGGACGAAACAG [G4C C29A]: the self-cleavage is 0.317.
ACCGGAUGUGCUUUCCGGGUUGAUGAGUCCGUGAGGACGAAACAG [U19G C20U]: the self-cleavage stood at 0.306.
Regarding ACCGGAUGUGCUUUCCAGUCUGAUGAGUCCGUGAGGAUGAAACAG [G17A C38U], the self-cleavage stood at 0.586.
With ACCGGAUGUGCUUUCCGGUCUGAUGAGUCCGUGAGGAAGCAACAG [C38A A40C], the self-cleavage is 0.411.
ACCGGAUGUGCUUUCCGGUCUGAUGACUCCGUGAGGAUGAAACAG [G27C C38U]: the self-cleavage worked out at 0.792.
Turning to ACCGGAUGUGCUUUGCGGUCUGAUGAGUCCGUGUGGACGAAACAG [C15G A34U], the self-cleavage is 0.904.
ACCGAAUGUGCUUUCCGGUCUGACGAGUCCGUGAGGACGAAACAG [G5A U24C]: the self-cleavage is 1.43.
The figure for ACCGGAUGUGCUGUCCGGUCUGAUGAGUCGGUGAGGACGAAACAG [U13G C30G] is 0.593.
On to ACCGGAUGUGCUUUCCGGUCUGAUGAGUCCGCGAGGACGAAACAU [U32C G45U], for which the self-cleavage was 0.635.
The figure for ACCGGAUUUGCCUUCCGGUCUGAUGAGUCCGUGAGGACGAAACAG [G8U U12C] is 1.35.
In the case of ACCGGAUGUGCUUUCCGGUCUGAUGAGUCCGUGAGGGCGGAACAG [A37G A40G], the self-cleavage is 0.274.
Consider ACCGGAUGUGCUUUCCGGUCUGAUGAGUCCGUGAGGACGACACCG [A41C A44C], for which the self-cleavage was 0.436.
Next, ACCGCAUGUGCUUUCCGGUCUGAUGAGUCCGUGAGGACGAAACAG [G5C]: 0.669.
Regarding ACCGGAUGAGCUUUCCGGUCUGAUGAGUCCGUGAGGGCGAAACAG [U9A A37G], the self-cleavage is 1.
The figure for ACCGGAUGUGCUUUCCGGUCUGAUGAGUCGGUGAUGACGAAACAG [C30G G35U] is 1.04; for ACCGGAUGCGCUUCCCGGUCUGAUGAGUCCGUGAGGACGAAACAG [U9C U14C] it is 0.518; for ACCGGAUGUGCUUUCCGGUCUGAUGAGUCCGUGAGAACGAAAUAG [G36A C43U] it is 0.378.
For ACGGGAUGUGCUUUCCUGUCUGAUGAGUCCGUGAGGACGAAACAG [C3G G17U], the self-cleavage came out at 0.583.
In the case of ACCGGAUGUGCUUUACGGUCUGAUGAGUCCGUGACGACGAAACAG [C15A G35C], the self-cleavage was found to be 0.509.
Regarding ACCGGAUGUGCUUUCCGGUCUGAUGUGUCCGUGAAGACGAAACAG [A26U G35A], the self-cleavage was 0.52.
Consider ACCGGAUGUGCUUUCCGGUCUGAUGAGUCCGUGAGGUCAAAACAG [A37U G39A], for which the self-cleavage is 0.386.
For ACCGGAUGUGCUUUCCGUUCCGAUGAGUCCGUGAGGACGAAACAG [G18U U21C], the self-cleavage came to 0.544.
With ACCGGAUGUGCUUUCAGGUCUGAUGAGUCCGUGAGGACGAGACAG [C16A A41G], the self-cleavage is 0.352.
For the variant ACCGGAUGUGCUUUCCGGUCUGAUGCGUCCGUGGGGACGAAACAG [A26C A34G], the self-cleavage came to 0.349.
Next, ACCGGAUUUGCUUUCCGGUCUGAUGAGUCCGUGUGGACGAAACAG [G8U A34U]: 0.792; ACCGGAUGUGCUUUCCGGACUGAUGAGUCCGUGAGGACCAAACAG [U19A G39C]: 0.329; ACCGGAUGUGCUUUCCGAUAUGAUGAGUCCGUGAGGACGAAACAG [G18A C20A]: 0.326.
In the case of ACCGGAUGUGCUUUCCGGUCUGAUGAGUCCGUGAGGACGGAACAU [A40G G45U], the self-cleavage was found to be 0.421.
In the case of ACCGGAUGUGCUUUCCGGUUUGAUGAGUCCGUGAGGACGAAACAC [C20U G45C], the self-cleavage stood at 0.471.
As for ACCGGAUGUGCUUUCCGGUCUGAUGAGCCCCUGAGGACGAAACAG [U28C G31C], the self-cleavage worked out at 0.769.
For ACCGGAUGUGCUUUCCGGCCUGAUGAUUCCGUGAGGACGAAACAG [U19C G27U], the self-cleavage was found to be 0.311.
Next, ACCGGAUGUGCCUUCCGGUCUGAUGAGUCCGUGAGGACGAAUCAG [U12C A42U]: 0.364.
Consider ACCCGAUCUGCUUUCCGGUCUGAUGAGUCCGUGAGGACGAAACAG [G4C G8C], for which the self-cleavage came out at 0.592.
Next, CCCGGAUGUGCUUUCCGGUCUGAUGAGUCCCUGAGGACGAAACAG [A1C G31C]: 0.503; ACCGGAUGUGCUUUCCGGUCUGAUGACUCCGUCAGGACGAAACAG [G27C G33C]: 0.723; ACCGGAAGUGCUUUCCGGUCUGAUGAGUACGUGAGGACGAAACAG [U7A C29A]: 0.511.
The figure for ACCCGAUGUGCUUUCCGGUCUGAUGAGUCAGUGAGGACGAAACAG [G4C C30A] is 0.594; for ACCGGAUGUGCUUUCCGGUCUGAUGACACCGUGAGGACGAAACAG [G27C U28A] it is 0.508.
Consider ACCUGAUGUGCUUUCCGGUCUGAUGAGUGCGUGAGGACGAAACAG [G4U C29G], for which the self-cleavage is 0.358.
As for ACCGGAUGUGUUUUCCGGUCUGAAGAGUCCGUGAGGACGAAACAG [C11U U24A], the self-cleavage was 1.2.
With ACCGGAUGUGCAUUCCGGUCUGAUGAGUCCGUGAGGACGAAAGAG [U12A C43G], the self-cleavage came to 0.301.
Consider ACCGGAUGUGCUUCCCGGUCUGAUGAGUCCGAGAGGACGAAACAG [U14C U32A], for which the self-cleavage worked out at 0.825.
Consider ACCGGAUGUGCCUUCCGGUCUGAUGAGUCCGUGAGCACGAAACAG [U12C G36C], for which the self-cleavage came out at 0.713.
Turning to ACCGGAUGUGCUUACCGGUCUGAUGAGUCCGUGAGGACGAAACGG [U14A A44G], the self-cleavage is 1.06.
For the variant ACCGGAUGUGCUUACCGGUCUGACGAGUCCGUGAGGACGAAACAG [U14A U24C], the self-cleavage was determined as 1.2.
Regarding ACCGGAUGUGCUUACCGGUCUGAUGAGUCAGUGAGGACGAAACAG [U14A C30A], the self-cleavage came to 0.838.
